The values below come from the supplement of paper PMC12764529.

Series [1] is described as follows: folding stability dG unfold from trypsin proteolysis; higher = more stable. The gist of the method:
(§1)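 Bayesian fitting of sequencing counts gave K50 for each design. Unfolding free energy followed by setting this against a sequence-predicted unfolded-state K50 and a shared folded-state K50, either per protease or with trypsin and chymotrypsin combined. The designs, under 80 residues and lacking cysteine, were digested in a PA-tagged cDNA display format at 11 threefold-diluted protease concentrations and without protease, and only those with AlphaFold2 dimer inter-PAE above 15 were kept.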

Series [2] can be described thus: folding stability dG unfold from chymotrypsin proteolysis; higher = more stable. The gist of the method:
as §1

Series [3] can be described thus: folding stability dG unfold (combined trypsin and chymotrypsin); higher = more stable. The gist of the method: as §1

± gives the half width of the 95% confidence interval.

Turning to “SAKIEINPEGGQIEMDYELNGKKVKITIQMPPENGMFPVKIEPPDLGKPIEVPYPFNSVDDMLDWAAEASAG [r14_803_TrROS]”, the “folding stability dG unfold” value in series [1] turned out to be 0.488 ± 0.11 kcal/mol; in series [2], 0.74 ± 0.13 kcal/mol; in series [3], 0.433 ± 0.36 kcal/mol.

Regarding “SAKIKIEKKEDGTIVIEVEAESEEEAEEAVKELVKELEKKGIKVEVVEVKIEKDPEKKGKYRVTIVIKKSAG [r14_119_TrROS_Hall]”, the “folding stability dG unfold” value in series [1] worked out at 2.69 ± 0.21 kcal/mol; in series [2], 4.39 ± 0.18 kcal/mol; in series [3] it was 3.76 ± 0.33 kcal/mol.

Regarding “SAKIVIIPLGDKAIIIITDENGKTKTIELPGISKIEIKGDHLKIYDPKTGKLIIPPNWKGKDIIIIPGKSAG [r14_83_TrMRF]”, the results for the “folding stability dG unfold” value in series [1], in series [2] and in series [3] were 2.25 ± 0.22 kcal/mol, 3.32 ± 0.59 kcal/mol and 2.9 ± 0.34 kcal/mol, respectively.

Turning to “SAKKENSVPVTIEIELEFDSIEKAKKAIEKLAAEIEKETGAKIEIKVEIEEKENNYIVKVELTIYLPKESAG [r14_626_TrMRF]”, the “folding stability dG unfold” value in series [1] was 1.6 ± 0.06 kcal/mol; in series [2], 1.55 ± 0.051 kcal/mol; in series [3], 1.64 ± 0.077 kcal/mol.

For the sequence “SAKKIKIKEITITVEKNKDGSYTITITVDGKKIAELTFKTPEEAEKAAEELAKELAKKLNVDKIEIKPTSAG [r14_791_TrROS_Hall]”, the “folding stability dG unfold” value was found to be 1.5 ± 0.18 kcal/mol in series [1], 2.69 ± 0.25 kcal/mol in series [2] and 2.09 ± 0.22 kcal/mol in series [3].

As for “SAKKKKVKKKEIKVTLKLKLPGAKIKSVKVEKKGDKLVITVEIELENGEKLKLTAVFDKDGKIVKIELESAG [r14_719_TrROS_Hall]”, the “folding stability dG unfold” value in series [1] came to 1.11 ± 0.11 kcal/mol; in series [2] it was 1.96 ± 0.061 kcal/mol; in series [3], 1.74 ± 0.38 kcal/mol.

For the sequence “SAKKPKKVIEVTIVLPLEELKNMSLEELLKKILEELGIKEGEKVKIEVKLEEVEIDGKKYLVITVRIELSAG [r14_334_TrROS_Hall]”, the “folding stability dG unfold” value in series [1] worked out at 2.87 ± 0.13 kcal/mol; in series [2], 2.69 ± 0.11 kcal/mol; in series [3], 2.69 ± 0.15 kcal/mol.

As to “SAKKTVKLKIEIYKVKVEKLKDGKEKITEVEKIAELEIEAEVDEDGKVTIRIDGKEIEVPAGTSLEELLSAG [r14_909_TrROS_Hall]”, the “folding stability dG unfold” value in series [1] was found to be 2.22 ± 0.17 kcal/mol; in series [2], 3.06 ± 0.12 kcal/mol; in series [3], 2.76 ± 0.18 kcal/mol.

On to “SAKKVKIEIKNKETNKIYTIEIKEDGKVTIKNKETGEEIEVEINGKKITFPPGASIDEIIKKLEEALKKSAG [r14_561_TrROS_Hall]”, for which the “folding stability dG unfold” value is 1.72 ± 0.16 kcal/mol in series [1], 2.77 ± 0.12 kcal/mol in series [2] and 2.56 ± 0.31 kcal/mol in series [3].

In the case of “SAKKYIIRVKVKINGKEYEIEIEADSLEEALAKLKEELKKLFPGEKIEEVKIEVYDAKTGEKKEITLKLSAG [r14_54_TrROS_Hall]”, the “folding stability dG unfold” value in series [1] is 2.76 ± 0.12 kcal/mol; in series [2] it was 4.2 ± 0.16 kcal/mol; in series [3], 4 ± 0.35 kcal/mol.

Take “SAKPVAEGPIRIPNGFEIEITQIKPDKENGEIVIPIEIEMWRPERDPEDPNQPKWEPQEMNIAFTIPLDSAG [r14_888_TrROS]”: the “folding stability dG unfold” value in series [1] turned out to be 1.3 ± 0.14 kcal/mol; in series [2] it was 0.119 ± 0.81 kcal/mol; in series [3], 0.857 ± 0.22 kcal/mol.

Turning to “SAKRVNVEIWIPGDWDEIQEIAEDINFPVEIERNPDKPDMYRITFTFPTPEKAPKILDALNKHGMQIEISAG [r14_745_TrROS]”, the “folding stability dG unfold” value in series [1] worked out at 1.33 ± 0.063 kcal/mol; in series [2] it was 1.89 ± 0.081 kcal/mol; in series [3] it was 1.64 ± 0.17 kcal/mol.

Turning to “SAKTKTIEIEVKIKLIEIDPKTGKKTEKEFTAKATITYDEENNVVTIKIEFKDNGKTITITLPPGAKIKSAG [r14_587_TrROS_Hall]”, the “folding stability dG unfold” value was 2.1 ± 0.098 kcal/mol in series [1], 2.25 ± 0.14 kcal/mol in series [2] and 2.26 ± 0.27 kcal/mol in series [3].

For “SAKVVIIKVKSPEELKAAIEELKKKLPEGAVIYIVNEDGSVYKITFDKKTGKVKIEKVKSLEELKKLLKSAG [r14_913_TrROS_Hall]”, the “folding stability dG unfold” value in series [1] is 2.31 ± 0.054 kcal/mol; in series [2] it was 3.96 ± 0.086 kcal/mol; in series [3], 3.47 ± 0.14 kcal/mol.

For “SALLEPLLLEVYIPATGEVITVPAKSLEEAEAIIAEVRADPTVASVRITLPDGTVVEVSFNVSPAAYLKSAG [r14_747_JUSTAS]”, the “folding stability dG unfold” value in series [1] worked out at 0.42 ± 0.12 kcal/mol; in series [2] it was 0.13 ± 0.16 kcal/mol; in series [3] it was 0.304 ± 0.2 kcal/mol.

On to “SALSASELAKRVRDRIKELSNEEGYNVDIKVDVQPNEDGSVTVHIQFDSPWMIKRIKEKLPPGVNVEIMSAG [r14_491_TrROS]”, for which the “folding stability dG unfold” value in series [1] was determined as 3.15 ± 0.073 kcal/mol; in series [2], 2.421 ± 0.021 kcal/mol; in series [3], 2.75 ± 0.05 kcal/mol.

On to “SAMDIGPEERAELLLRTLANIAKEEIEKGDLEKAKIFVINGIAEENPPLAERILKEAKELGLPVIILPESAG [r14_908_TrMRF]”, for which the “folding stability dG unfold” value in series [1] came to 0.659 ± 0.1 kcal/mol; in series [2], 1.13 ± 0.076 kcal/mol; in series [3], 0.981 ± 0.059 kcal/mol.

Consider “SAMEKGKALKYREVIPLPDGPVELEIIYFPETGEYVAIIRNPSTGEKVEIPFKFDSLEDAVKAAKDFVASAG [r14_65_TrMRF]”, for which the “folding stability dG unfold” value in series [1] came to 2.06 ± 0.11 kcal/mol; in series [2], 3.705 ± 0.029 kcal/mol; in series [3] it was 3.29 ± 0.076 kcal/mol.

On to “SAMEKPLETLEIPIPGLPVTVKITIYPSHIEKAKESGIPEITVEALLTIELPDGSKVEKKIPLTVKIPGSAG [r14_100_JUSTAS]”, for which the results for the “folding stability dG unfold” value in series [1], in series [2] and in series [3] were 1.58 ± 0.043 kcal/mol, 1.67 ± 0.042 kcal/mol and 1.61 ± 0.11 kcal/mol, respectively.

For “SAMIEVINATDPVTGKPYTITREGEGITVTDPETGKTYAATKDGDTITLDAGDTPLTLTPVSTVPESLLSAG [r14_208_JUSTAS]”, the results for the “folding stability dG unfold” value in series [1], in series [2] and in series [3] were 0.839 ± 0.041 kcal/mol, 0.989 ± 0.16 kcal/mol and 1.01 ± 0.1 kcal/mol, respectively.

As to “SAMIIVAMAPDRMLIIGPDGRVLVVDDPEKAIELIKELFPVPIIVIPVPEDSPVFRELLERLERERTGESAG [r14_235_TrMRF]”, the “folding stability dG unfold” value in series [1] was 2.71 ± 0.08 kcal/mol; in series [2], 3.18 ± 0.11 kcal/mol; in series [3], 2.91 ± 0.14 kcal/mol.

As for “SAMITVEIVDPLPDIANLSEEEAKALAEELAEEYAKKKFPNENVKITKVEVELEPETPEIRVTVTLELKSAG [r14_310_JUSTAS]”, the “folding stability dG unfold” value amounted to 2.09 ± 0.16 kcal/mol in series [1], 2.56 ± 0.083 kcal/mol in series [2] and 2.37 ± 0.15 kcal/mol in series [3].

For “SAMIVKDLKTKEEIKKVLEEIAKKLGYPNVTPEEAEEILKKIGVKILSIEKNPKNPEKYIIKIKIEKPKSAG [r14_678_JUSTAS]”, the “folding stability dG unfold” value in series [1] stood at 2.23 ± 0.1 kcal/mol; in series [2], 2.34 ± 0.033 kcal/mol; in series [3], 2.29 ± 0.14 kcal/mol.

For the sequence “SAMIVVTLTINPITGKPILIFDPGVGVYAIDPETGEPHEATVDGDTLTLNFGNRPILLTPEAVIPPEELSAG [r14_208_TrMRF]”, the “folding stability dG unfold” value in series [1] was found to be 0.94 ± 0.017 kcal/mol; in series [2], 1.41 ± 0.079 kcal/mol; in series [3] it was 1.21 ± 0.067 kcal/mol.

In the case of “SAMKFKKGAKIEIEVEKVEEKEIDGKTVAVYRMKIKIEVDGKKYEIEVEIYYDKETKEWKIVKVEIKEVSAG [r14_293_TrROS_Hall]”, the entries for the “folding stability dG unfold” value in series [1], in series [2] and in series [3] were 3.55 ± 0.33 kcal/mol, 3.13 ± 0.046 kcal/mol and 3.33 ± 0.19 kcal/mol, respectively.

For the sequence “SAMKIAKVTYEPVKVDGKELLLFKVEIVHSETGEKEEKTFLTEDPEDFIENLLKHPDIDIVEILEFKEGSAG [r14_464_TrMRF]”, the entries for the “folding stability dG unfold” value in series [1], in series [2] and in series [3] were 2.32 ± 0.13 kcal/mol, 3.43 ± 0.066 kcal/mol and 3.21 ± 0.083 kcal/mol, respectively.

Take “SAMKIIIKLPKNVKPIKAEELEKIPGIKVVKIEIYKGEDGVYYLLIEIEESIPPEKLKELEEKIREIAGSAG [r14_421_TrMRF]”: the “folding stability dG unfold” value in series [1] amounted to 4.44 ± 0.28 kcal/mol; in series [2] it was 5.41 ± 0.15 kcal/mol; in series [3], 5.81 ± 0.41 kcal/mol.

Take “SAMKIKPGEKVKIKIEVKNKKTKKKKTIEIEVPVDEETGEVFTEDELKKLLEKLGIEVEEVKIVEIEKESAG [r14_93_TrROS_Hall]”: the “folding stability dG unfold” value in series [1] came to 0.886 ± 0.047 kcal/mol; in series [2] it was 0.601 ± 0.15 kcal/mol; in series [3], 0.76 ± 0.21 kcal/mol.

“SAMKKGEKVKVTLEIEVNGKKYKIELVYDKENNTYTIKIKNEKTGETKTIEVKAKTKEEALEAAKKLLESAG [r14_65_TrROS_Hall]”: the “folding stability dG unfold” value was 1.96 ± 0.076 kcal/mol in series [1], 2.55 ± 0.035 kcal/mol in series [2] and 2.41 ± 0.16 kcal/mol in series [3].

Regarding “SAMKLPKDVEIKEIKFDPEKTVTIKIKVKKYDFFIYDPETGKVIVIKPGEEKEITLPANIPLLIFAIKPSAG [r14_385_TrMRF]”, the “folding stability dG unfold” value stood at 2.16 ± 0.092 kcal/mol in series [1], 1.91 ± 0.098 kcal/mol in series [2] and 2.16 ± 0.23 kcal/mol in series [3].

Regarding “SAMKLSPELLKKLGLSKEDIKEIEIEVEPVPELSEEDLKKKNVTVYKVKIKIKVNGKEYEVELLFVEPKSAG [r14_483_TrROS_Hall]”, the “folding stability dG unfold” value in series [1] came out at 1.83 ± 0.07 kcal/mol; in series [2], 2.49 ± 0.18 kcal/mol; in series [3] it was 2.18 ± 0.15 kcal/mol.

For the sequence “SAMKPKEVVIEISVEELRKLAKELFPEKELTLEELKNLVKELLEKLGIKVKKVEIVKVDPEKKRIVIKVSAG [r14_303_TrROS_Hall]”, the entries for the “folding stability dG unfold” value in series [1], in series [2] and in series [3] were 2.77 ± 0.15 kcal/mol, 1.72 ± 0.083 kcal/mol and 2.02 ± 0.21 kcal/mol, respectively.

As to “SAMKTIEIEIELDELKNLTPEELEEKAKELAEELAKKLAEEKGLEVVSVKVEVVEKDGKLVVKVTVEVKSAG [r14_310_TrROS_Hall]”, the “folding stability dG unfold” value in series [1] is 3.59 ± 0.24 kcal/mol; in series [2], 2.83 ± 0.26 kcal/mol; in series [3], 3.66 ± 0.71 kcal/mol.

In the case of “SAMKVEKLEELPDKEILKVEATPEELRKIVEELAKANPGYEVSYKILEEEPIALITLTPIPKGPKENLVSAG [r14_600_JUSTAS]”, the “folding stability dG unfold” value in series [1] turned out to be 1.08 ± 0.06 kcal/mol; in series [2], 0.0174 ± 0.2 kcal/mol; in series [3], 0.796 ± 0.13 kcal/mol.

Turning to “SAMKVKVIVINPDGKPQEFEFEAEEGDPEKLVEEVEAEIKKLHPNSDIKFKAEVLEVKPDGEITILVSDSAG [r14_622_TrMRF]”, the “folding stability dG unfold” value worked out at 2.03 ± 0.19 kcal/mol in series [1], 2.77 ± 0.05 kcal/mol in series [2] and 2.52 ± 0.14 kcal/mol in series [3].
